{
  "source": "paper PMC4823666",
  "about": "“Characterization of a temperature-responsive two component regulatory system from the Antarctic archaeon, Methanococcoides burtonii” (Scientific Reports, 2016)",
  "proteins": {"B1": {"name": "LtrK (low temperature responsive sensor kinase, Mbur_0694), soluble cytoplasmic domain, residues 323-592 (domain or fragment, Methanococcoides burtonii, UniProt Q12Y17 323-592, looked up)", "chain": "NKTLEDEVKSKTSELERSNDYLQNANKKLKELDRLKNDFVSMVSHELKTPLTAMKTSSEFLRESECSREIKEEMLDLIIRNIDRQARMVDDLLDISRIESGKMKFTPEDVNIKEIIEISLHNVTKHAKDKSIKIMVNCPDDVPAISTDKDKLIRIFVNLLTNAIKFTPEEGEVTVIVEDHEDYLQTSIKDNGIGILEEKRDKIFDKFYQVDSTATRKAGGTGLGLAIIKGIIDGQGGKIYLESETGKGSTFTFRLPKELKEDDFTEIEGT", "notes": "LtrK (Mbur_0694) sensor kinase of Methanococcoides burtonii, cytoplasmic domain (HisKA and HATPase domains), residues 323-592; the N-terminal region with the transmembrane domains was deleted; A Tev site lies between GST and LtrK; Both the GST fusion (~59 kDa) and the GST-cleaved protein (~31 kDa) were purified; also called GST-LtrK; SK; source: E. coli BL21 (DE3), solubilised with Triton X-100 …"}},
  "target": "the molecule itself",
  "assay": "SEC; purified LtrK cytoplasmic domain; oligomeric state by size exclusion chromatography; data not shown",
  "data": [
    {"protein": "B1", "values": [
      {"measurement": "stoichiometry N", "result": 2}
    ]}
  ]
}
